Literature values, collected in paper PMC10454195.

Biological target: GLP-1 receptor (Homo sapiens) (UniProt P43220)
Sequence of UniProt P43220 (P43220 24-463): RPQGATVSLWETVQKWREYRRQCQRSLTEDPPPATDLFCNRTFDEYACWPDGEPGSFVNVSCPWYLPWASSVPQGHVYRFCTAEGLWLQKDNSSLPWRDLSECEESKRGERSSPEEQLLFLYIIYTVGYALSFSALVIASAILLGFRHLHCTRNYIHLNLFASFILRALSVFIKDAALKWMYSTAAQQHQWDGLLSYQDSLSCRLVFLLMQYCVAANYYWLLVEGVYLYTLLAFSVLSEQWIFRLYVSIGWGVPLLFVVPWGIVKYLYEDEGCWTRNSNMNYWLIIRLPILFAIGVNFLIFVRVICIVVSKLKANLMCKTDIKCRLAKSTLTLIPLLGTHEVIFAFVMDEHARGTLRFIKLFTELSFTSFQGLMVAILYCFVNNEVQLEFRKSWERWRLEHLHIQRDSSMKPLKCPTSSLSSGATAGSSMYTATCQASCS

Sequence of GLP-1 (P01275 98-127): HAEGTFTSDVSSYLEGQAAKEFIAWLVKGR

**Q.** With GLP-1 (from UniProt P01275) as the substance, how does the Kd read?
**A.** The Kd was 5 nM.
